Paper PMC3839082

Molecular target: hCINAP-H79G mutant (human) (UniProt Q9Y3D8)
Experiment: SEC

Which stoichiometry N does the source give for “hCINAP-H79G mutant (from UniProt Q9Y3D8 1-172) (enzyme)” here?
Its stoichiometry N is 2.
